The values below come from publication PMC7457226 (Developmental cell, 2019).

One data set deals with Rab11 (Homo sapiens) (UniProt P62491). To be noted: cited from earlier work.
The next data set concerns the target WDR44 334-435 (human) (UniProt Q5JSH3). Briefly: ITC.
The target in data set [1] is Rab11Q70L 6-186-WDR44 334-435 complex (human) (UniProt P62491). Briefly: ITC. In general terms: In ITC the heat of successive injections is recorded.
The data set “SEC” concerns the molecule itself. Briefly: SEC. In general terms: Size exclusion chromatography separates by hydrodynamic size, large species first.

Chain of Rab11 (Homo sapiens) (P62491 2-213): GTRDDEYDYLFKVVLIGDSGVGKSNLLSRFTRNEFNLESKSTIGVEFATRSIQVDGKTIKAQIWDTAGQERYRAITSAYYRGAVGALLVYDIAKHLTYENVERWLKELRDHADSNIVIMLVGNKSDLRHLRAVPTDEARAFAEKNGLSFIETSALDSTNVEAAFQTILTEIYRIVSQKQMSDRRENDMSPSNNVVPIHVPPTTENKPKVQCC
Chain of WDR44 334-435 (human) (Q5JSH3 334-435): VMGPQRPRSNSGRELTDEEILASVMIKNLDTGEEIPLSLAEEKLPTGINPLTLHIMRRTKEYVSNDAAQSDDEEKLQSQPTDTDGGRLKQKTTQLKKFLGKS

Take Rabin8 (from UniProt Q96QF0): the Kd (usually the free concentration of one partner at which half of the binding sites on the other are occupied at equilibrium, for simple one-to-one binding) in the data set with Rab11 (Homo sapiens) is 40 µM. Molecule “Rab11Q70L 6-186 (calorimetry) (from UniProt P62491 6-186) (domain or fragment)” displayed a Kd with WDR44 334-435 (human) of 0.54 µM.

B1: Rabin8C (residues 270-460) (domain or fragment)
chain: NKSTSSAMSGSHQDLSVIQPIVKDCKEADLSLYNEFRLWKDEPTMDRTCPFLDKIYQEDIFPCLTFSKSELASAVLEAVENNTLSIEPVGLQPIRFVKASAVECGGPKKCALTGQSKSCKHRIKLGDSSNYYYISPFCRYRITSVCNFFTYIRYIQQGLVKQQDVDQMFWEVMQLRKEMSLAKLGYFKEEL
For B1, the Kd in data set [1] turned out to be 37.2 µM.

B2: Rabin8 144-C (domain or fragment, human, UniProt Q96QF0-2 144-460, looked up)
chain: RLRSPSVLEVREKGYERLKEELAKAQRELKLKDEECERLSKVRDQLGQELEELTASLFEEAHKMVREANIKQATAEKQLKEAQGKIDVLQAEVAALKTLVLSSSPTSPTQEPLPGGKTPFKKGHTRNKSTSSAMSGSHQDLSVIQPIVKDCKEADLSLYNEFRLWKDEPTMDRTCPFLDKIYQEDIFPCLTFSKSELASAVLEAVENNTLSIEPVGLQPIRFVKASAVECGGPKKCALTGQSKSCKHRIKLGDSSNYYYISPFCRYRITSVCNFFTYIRYIQQGLVKQQDVDQMFWEVMQLRKEMSLAKLGYFKEEL
Turning to B2, the binding result in “SEC” is reported as “binds”.

B3: Rabin8 144-C S147A/S149A (domain or fragment, human, UniProt Q96QF0-2 144-460, looked up)
chain: RLRAPAVLEVREKGYERLKEELAKAQRELKLKDEECERLSKVRDQLGQELEELTASLFEEAHKMVREANIKQATAEKQLKEAQGKIDVLQAEVAALKTLVLSSSPTSPTQEPLPGGKTPFKKGHTRNKSTSSAMSGSHQDLSVIQPIVKDCKEADLSLYNEFRLWKDEPTMDRTCPFLDKIYQEDIFPCLTFSKSELASAVLEAVENNTLSIEPVGLQPIRFVKASAVECGGPKKCALTGQSKSCKHRIKLGDSSNYYYISPFCRYRITSVCNFFTYIRYIQQGLVKQQDVDQMFWEVMQLRKEMSLAKLGYFKEEL
Consider B3, for which the binding result in “SEC” was “binds”.

B4: Rabin8 144-C S147D/S149D (domain or fragment, human, UniProt Q96QF0-2 144-460, looked up)
chain: RLRDPDVLEVREKGYERLKEELAKAQRELKLKDEECERLSKVRDQLGQELEELTASLFEEAHKMVREANIKQATAEKQLKEAQGKIDVLQAEVAALKTLVLSSSPTSPTQEPLPGGKTPFKKGHTRNKSTSSAMSGSHQDLSVIQPIVKDCKEADLSLYNEFRLWKDEPTMDRTCPFLDKIYQEDIFPCLTFSKSELASAVLEAVENNTLSIEPVGLQPIRFVKASAVECGGPKKCALTGQSKSCKHRIKLGDSSNYYYISPFCRYRITSVCNFFTYIRYIQQGLVKQQDVDQMFWEVMQLRKEMSLAKLGYFKEEL
For the molecule B4, the binding result in “SEC” is on record as “binds”.
